B1: MB3 (A3) mutant oligo (dsDNA)
DNA 1: ACTACAGACACCTGCCACCACACCCAA
DNA 2: TTGGGTGTGGTGGCAGGTGTCTGTAGT
modifications: [12]
B2: MB2 (A2) mutant oligo (dsDNA)
DNA 1: GCACAAGACAACTGCTTAGCAAACGGG
DNA 2: CCCGTTTGCTAAGCAGTTGTCTTGTGC
modifications: [11,12]
B3: MB1 (A1) mutant oligo (dsDNA)
DNA 1: GGGCCTGCCAACTGCACCCCGCCCGGG
DNA 2: CCCGGGCGGGGTGCAGTTGGCAGGCCC
modifications: [11,12]

What follows are binders tested against GST-C92 Myc/Max heterodimer (UniProt P01106;P61244 P01106:363-454,P61244:1-160) (assay: competition; mutant oligo did not compete). Conditions: tags: GST on Myc C-terminal 92 aa (C92Myc).
Excerpt: To test whether Myc/Max complexes could efficiently bind to the isolated sites, we performed electrophoretic mobility shift assays (EMSA) on each DNA fragment, confirming that they represent functional myc-binding elements in vitro. For instance, oligonucleotides, matching the Myc binding site from F1, F2 and from the second intron of the cdc25A (MB3) were also checked by EMSA. In this case, oligonucleotides corresponding to a wild type site and a single point mutant within the consensus sequence site were used to compete with the cdc25A sites. […] Similar results were obtained for MB2 and MB3.
For the identification of the Myc/Max binding sequences within the cdc25 genomic regions we utilized an affinity chromatography procedure, similar to immunoprecipitation procedures (Okamoto et al. (1994) EMBO J. 13:4816-4822). Briefly, cdc25 (A, B and C) genomic clones were digested with the Hinfl restriction endonuclease, end-labeled with p32 and further incubated with 10 ng of the GSTC92Myc/Max complexes in the binding buffer (Ayer et al. (1993) Cell 72:211-222), followed by incubation with 20 μl of glutathione sepharose for 30 min at 4° C. Isolated complexes were washed four times in the binding buffer, eluted with proteinase K digestion, treated with phenol/chloroform and further ethanol precipitated. Precipitated material was resuspended in 10-20 μl of TE and subjected to polyacrylamide gel (PAG) electrophoresis, followed by autoradiography. Total digests were treated the same way, except affinity chromatography on the glutathione beads, and run as a control on a gel on a parallel lane with the purified material. Electrophoretic mobility shift assays (EMSA) were done either with F1 or F2 fragments or with the synthetic oligonucleotides, corresponding to MB 1, MB2 or MB3 as described in the art, c. f., Ayer et al. (1993) Cell 72:211-222. Mutant oligonucleotides correspond to the same sequence as F1 and F2 with CATGTG changed to CAACTG (for A1 and A2) or CACGTG changed to CACCTG (for A3). CM-1 oligonucleotide has been described (Ayer et al. supra).

Chain of GST-C92 Myc/Max heterodimer (P01106 363-454, chain 1 of 2): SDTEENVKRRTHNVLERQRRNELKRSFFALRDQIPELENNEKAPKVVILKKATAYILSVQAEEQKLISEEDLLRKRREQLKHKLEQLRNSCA
Chain of GST-C92 Myc/Max heterodimer (P61244 whole entry, chain 2 of 2, the tested form may be a part): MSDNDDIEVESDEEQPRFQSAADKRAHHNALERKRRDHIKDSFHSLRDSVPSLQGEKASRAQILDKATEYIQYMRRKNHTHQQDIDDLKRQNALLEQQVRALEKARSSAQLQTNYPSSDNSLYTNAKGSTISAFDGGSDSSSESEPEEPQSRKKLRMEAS

Binding result, no binding:
B1
B2
B3

— patent publication US20010044102, “ASSAYS AND REAGENTS FOR IDENTIFYING MODULATORS OF CDC25-MEDIATED MITOTIC ACTIVATION” (published 2001)
